According to paper PMC10857128:

Experiments:
[1] = biological target: peppermint leaf-type ferredoxin NADP+ reductase (L-FNR) (Mentha × piperita (peppermint))
[2] = biological target: peppermint root-type ferredoxin NADP+ reductase (R-FNR) (Mentha × piperita (peppermint))
[3] = biological target: peppermint root-type ferredoxin NADP+ reductase (R-FNR) (Mentha × piperita (peppermint)); remark: listed apart in the source

“peppermint leaf-type ferredoxin (Fd I) (natural protein)” gave a Km^Fd, FNR–Fd-dependent cytochrome c reduction (NADPH-dependent cytochrome c reductase assay, Fd varied 0.3-20 µM, 30 °C, 50 mM Tris pH 7.5) [1] of 2.3 µM, a kcat, FNR–Fd-dependent cytochrome c reduction (NADPH-dependent cytochrome c reductase assay, Fd varied 0.3-20 µM, 30 °C, 50 mM Tris pH 7.5) [1] of 125 s^−1 and a kcat/Km^Fd, FNR–Fd-dependent cytochrome c reduction (NADPH-dependent cytochrome c reductase assay, Fd varied 0.3-20 µM, 30 °C, 50 mM Tris pH 7.5) [1] of 54.2 µM^−1s^−1. It also gave a Km^Fd, FNR–Fd-dependent cytochrome c reduction (NADPH-dependent cytochrome c reductase assay, Fd varied 0.3-20 µM, 30 °C, 50 mM Tris pH 7.5) [2] of 3.6 µM, a kcat, FNR–Fd-dependent cytochrome c reduction (NADPH-dependent cytochrome c reductase assay, Fd varied 0.3-20 µM, 30 °C, 50 mM Tris pH 7.5) [2] of 281 s^−1 and a kcat/Km^Fd, FNR–Fd-dependent cytochrome c reduction (NADPH-dependent cytochrome c reductase assay, Fd varied 0.3-20 µM, 30 °C, 50 mM Tris pH 7.5) [2] of 78.3 µM^−1s^−1.

In the case of “peppermint root-type ferredoxin (Fd II) (natural protein)”, the Km^Fd, FNR–Fd-dependent cytochrome c reduction (NADPH-dependent cytochrome c reductase assay, Fd varied 0.3-20 µM, 30 °C, 50 mM Tris pH 7.5) [1] is reported as 2.8 µM, the kcat, FNR–Fd-dependent cytochrome c reduction (NADPH-dependent cytochrome c reductase assay, Fd varied 0.3-20 µM, 30 °C, 50 mM Tris pH 7.5) [1] is reported as 304 s^−1 and the kcat/Km^Fd, FNR–Fd-dependent cytochrome c reduction (NADPH-dependent cytochrome c reductase assay, Fd varied 0.3-20 µM, 30 °C, 50 mM Tris pH 7.5) [1] is reported as 109 µM^−1s^−1. For the same substance, the Km^Fd, FNR–Fd-dependent cytochrome c reduction (NADPH-dependent cytochrome c reductase assay, Fd varied 0.3-20 µM, 30 °C, 50 mM Tris pH 7.5) [2] was 1.9 µM, the kcat, FNR–Fd-dependent cytochrome c reduction (NADPH-dependent cytochrome c reductase assay, Fd varied 0.3-20 µM, 30 °C, 50 mM Tris pH 7.5) [2] was 428 s^−1 and the kcat/Km^Fd, FNR–Fd-dependent cytochrome c reduction (NADPH-dependent cytochrome c reductase assay, Fd varied 0.3-20 µM, 30 °C, 50 mM Tris pH 7.5) [2] was 222 µM^−1s^−1.

In the case of “peppermint root-type ferredoxin (Fd III) (natural protein)”, the Km^Fd, FNR–Fd-dependent cytochrome c reduction (NADPH-dependent cytochrome c reductase assay, Fd varied 0.3-20 µM, 30 °C, 50 mM Tris pH 7.5) [1] is reported as 2.9 µM, the kcat, FNR–Fd-dependent cytochrome c reduction (NADPH-dependent cytochrome c reductase assay, Fd varied 0.3-20 µM, 30 °C, 50 mM Tris pH 7.5) [1] is reported as 286 s^−1 and the kcat/Km^Fd, FNR–Fd-dependent cytochrome c reduction (NADPH-dependent cytochrome c reductase assay, Fd varied 0.3-20 µM, 30 °C, 50 mM Tris pH 7.5) [1] is reported as 98.1 µM^−1s^−1. For the same substance, the Km^Fd, FNR–Fd-dependent cytochrome c reduction (NADPH-dependent cytochrome c reductase assay, Fd varied 0.3-20 µM, 30 °C, 50 mM Tris pH 7.5) [2] was 2.3 µM, the kcat, FNR–Fd-dependent cytochrome c reduction (NADPH-dependent cytochrome c reductase assay, Fd varied 0.3-20 µM, 30 °C, 50 mM Tris pH 7.5) [2] was 428 s^−1 and the kcat/Km^Fd, FNR–Fd-dependent cytochrome c reduction (NADPH-dependent cytochrome c reductase assay, Fd varied 0.3-20 µM, 30 °C, 50 mM Tris pH 7.5) [2] was 189 µM^−1s^−1. The Km value for Fd III as told in the text, NADPH-dependent cytochrome c reductase assay (differs from the cell of Table 2) [3] was 2.1 µM.
